In this assay the target is procaspase-3 (endogenous, in cytosolic extract of 293T cells) (human) (UniProt P42574). Nature of the assay: cell-based or functional assay.

For one substance, DEVDase activity of cytosolic extract of NK1R-transfected 293T cells results are on record in patent US20050244894A1.

Sequence of procaspase-3 (endogenous, in cytosolic extract of 293T cells) (human) (P42574 whole entry): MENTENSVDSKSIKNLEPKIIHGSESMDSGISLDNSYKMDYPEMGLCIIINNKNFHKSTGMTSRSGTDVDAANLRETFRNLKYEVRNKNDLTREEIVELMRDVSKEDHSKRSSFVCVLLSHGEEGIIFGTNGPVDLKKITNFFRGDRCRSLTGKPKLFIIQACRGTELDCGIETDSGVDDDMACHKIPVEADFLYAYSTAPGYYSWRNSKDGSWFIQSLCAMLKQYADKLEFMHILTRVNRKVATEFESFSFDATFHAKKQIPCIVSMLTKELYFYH

For the substance granzyme B (enzyme), the DEVDase activity of cytosolic extract of NK1R-transfected 293T cells is 7 fold.
